{"source": "paper PMC3162391", "about": "(The Journal of Biological Chemistry, 2011)", "target": "the molecule itself", "experiment": "FRET or BRET", "data": [{"protein": "CD5 BRET pair (CD5Luc and CD5GFP) (receptor, human, UniProt P06127 25-495, looked up) RLSWYDPDFQARLTRSNSKCQGQLEVYLKDGWHMVCSQSWGRSSKQWEDPSQASKVCQRLNCGVPLSLGPFLVTYTPQSSIICYGQLGSFSNCSHSRNDMCHSLGLTCLEPQKTTPPTTRPPPTTTPEPTAPPRLQLVAQSGGQHCAGVVEFYSGSLGGTISYEAQDKTQDLENFLCNNLQCGSFLKHLPETEAGRAQDPGEPREHQPLPIQWKIQNSSCTSLEHCFRKIKPQKSGRVLALLCSGFQPKVQSRLVGGSSICEGTVEVRQGAQWAALCDSSSARSSLRWEEVCREQQCGSVNSYRVLDAGDPTSRGLFCPHQKLSQCHELWERNSYCKKVFVTCQDPNPAGLAAGTVASIILALVLLVVLLVVCGPLAYKKLVKKFRQKKQRQWIGPTGMNQNMSFHRNHTATVRSHAENPTASHVDNEYSQPPRNSHLSAYPALEGALHRSSMQPDNSSDSDYDLHGAQRL", "values": [{"measurement": "stoichiometry N", "value": 2}]}]}
